The target in test [1] is T1, avirulence protein B (AvrB), wild type (Pseudomonas syringae pv. glycinea), P13835. As to the kind of experiment: ITC; VP-ITC microcalorimeter; RIN4_(142–176) peptide (50 to 450 μM) titrated in 6-μl injections into 5 to 25 μM wild-type or variant AvrB, stirring at 255 rpm; wild-type AvrB 6 μM with full-length RIN4 120 μM; nonbinding confirmed at as much as 25 μM and 450 μM. The conditions noted are these: remark: other sources report otherwise.

The target in test [2] is T1, avirulence protein B (AvrB), wild type …. The description is as above. The conditions noted are these: remark: other sources report otherwise. The source holds these as a separate data set.

As a reminder, the Kd is a measure of binding affinity in units of concentration. A lower Kd goes with tighter binding.

T1 sequence (P13835 whole entry): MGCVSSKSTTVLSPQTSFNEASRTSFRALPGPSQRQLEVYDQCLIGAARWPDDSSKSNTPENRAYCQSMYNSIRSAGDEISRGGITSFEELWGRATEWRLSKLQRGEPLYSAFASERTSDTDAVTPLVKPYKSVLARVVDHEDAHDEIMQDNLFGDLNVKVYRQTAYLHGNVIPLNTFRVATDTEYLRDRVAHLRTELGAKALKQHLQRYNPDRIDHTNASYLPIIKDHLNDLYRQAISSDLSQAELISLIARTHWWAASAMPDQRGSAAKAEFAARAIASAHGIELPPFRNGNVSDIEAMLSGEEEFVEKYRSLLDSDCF

B1: full-length RIN4, Q8GYN5 1-211 (natural protein)
chain: MARSNVPKFGNWEAEENVPYTAYFDKARKTRAPGSKIMNPNDPEYNSDSQSQAPPHPPSSRTKPEQVDTVRRSREHMRSREESELKQFGDAGGSSNEAANKRQGRASQNNSYDNKSPLHKNSYDGTGKSRPKPTNLRADESPEKVTVVPKFGDWDENNPSSADGYTHIFNKVREERSSGANVSGSSRTPTHQSSRNPNNTSSCCCFGFGGK
Consider B1, for which the Kd in test [1] was determined as 1000 nM; in test [2] it was 4000 nM.

For the origin of these results see paper PMC1839166, “Type III Effector Activation via Nucleotide Binding, Phosphorylation, and Host Target Interaction” (PLoS Pathogens, 2007).
